Laboratory results as given in publication PMC4765788, “Role of a chalcone isomerase-like protein in flavonoid biosynthesis in Arabidopsis thaliana” (Journal of Experimental Botany, 2015).

Biological target: the molecule itself
Experiment: native gel or EMSA; purified recombinant protein run on a non-denaturing PAGE gel

B1: recombinant TT5 protein (chalcone isomerase), His-tagged (enzyme, Arabidopsis thaliana, UniProt P41088 1-246, looked up)
chain: MSSSNACASPSPFPAVTKLHVDSVTFVPSVKSPASSNPLFLGGAGVRGLDIQGKFVIFTVIGVYLEGNAVPSLSVKWKGKTTEELTESIPFFREIVTGAFEKFIKVTMKLPLTGQQYSEKVTENCVAIWKQLGLYTDCEAKAVEKFLEIFKEETFPPGSSILFALSPTGSLTVAFSKDDSIPETGIAVIENKLLAEAVLESIIGKNGVSPGTRLSVAERLSQLMMKNKDEKEVSDHSVEEKLAKEN
notes: TT5, chalcone isomerase, Arabidopsis thaliana, At3g55120; ORF cloned into pQE-30; pQE-30 usually adds an N-terminal His6 tag (surmised); also called CHI
- stoichiometry N: 4
